Data set [1] deals with HeLa Kyoto. As to the kind of experiment: solubility in G1/S (NP-40 vs SDS abundance) (log2 ratio); higher = more soluble. To be noted: cell cycle stage: G1/S.
Data set [2] concerns HeLa Kyoto. As to the kind of experiment: melting temperature (median over replicates), in situ; higher = more thermally stable.
In data set [3] the test system is HeLa Kyoto. As to the kind of experiment: solubility change mitosis vs G1/S (difference of NP-40 vs SDS log2 ratios) (log2 ratio difference); higher = more soluble in mitosis.
In data set [4] the test system is HeLa Kyoto. As to the kind of experiment: thermal stability score vs G1/S (z-score of summed log2 fold changes over temperatures); higher = more thermally stable than in G1/S.
Where [5] appears, read: cell cycle stage: early G1 (4.5 h after nocodazole release).

From the supplement of paper PMC5998384 come the findings set out here.
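Throughout, for melting temperature (median over replicates), in situ: HeLa Kyoto cells synchronized by double thymidine or nocodazole block, proteins quantified by TMT10plex mass spectrometry, three independent biological replicates.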
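Throughout, for solubility change mitosis vs G1/S (difference of NP-40 vs SDS log2 ratios): synchronized HeLa Kyoto cells (double thymidine block for G1/S, nocodazole release for mitosis), protein amounts in NP-40 versus SDS lysates quantified by mass spectrometry, three biological replicates.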
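Throughout, for solubility in G1/S (NP-40 vs SDS abundance): HeLa Kyoto cells arrested at G1/S by double thymidine block, proteins quantified by TMT10plex mass spectrometry in mild NP-40 versus SDS extracts, three biological replicates.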
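Throughout, for thermal stability score vs G1/S (z-score of summed log2 fold changes over temperatures): synchronized HeLa Kyoto cells, proteins quantified by TMT10plex mass spectrometry, three biological replicates, mitosis taken 0.5 h after nocodazole release, G1/S directly after double thymidine block.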

For the sequence “MEGGLADGEPDRTSLLGDSKDVLGPSTVVANSDESQLLTPGKMSQRQGKEAYPTPTKDLHQPSLSPASPHSQGFERGKEDISQNKDESSLSMSKSKSESKLYNGSEKDSSTSSKLTKKESLKVQKKNYREEKKRATKELLSTITDPSVIVMADWLKIRGTLKSWTKLWCVLKPGVLLIYKTQKNGQWVGTVLLNACEIIERPSKKDGFCFKLFHPLEQSIWAVKGPKGEAVGSITQPLPSSYLIIRATSESDGRCWMDALELALKCSSLLKRTMIREGKEHDLSVSSDSTHVTFYGLLRANNLHSGDNFQLNDSEIERQHFKDQDMYSDKSDKENDQEHDESDNEVMGKSEESDTDTSERQDDSYIEPEPVEPLKETTYTEQSHEELGEAGEASQTETVSEENKSLIWTLLKQVRPGMDLSKVVLPTFILEPRSFLDKLSDYYYHADFLSEAALEENPYFRLKKVVKWYLSGFYKKPKGLKKPYNPILGETFRCLWIHPRTNSKTFYIAEQVSHHPPISAFYVSNRKDGFCLSGSILAKSKFYGNSLSAILEGEARLTFLNRGEDYVMTMPYAHCKGILYGTMTLELGGTVNITCQKTGYSAILEFKLKPFLGSSDCVNQISGKLKLGKEVLATLEGHWDSEVFITDKKTDNSEVFWNPTPDIKQWRLIRHTVKFEEQGDFESEKLWQRVTRAINAKDQTEATQEKYVLEEAQRQAARDRKTKNEEWSCKLFELDPLTGEWHYKFADTRPWDPLNDMIQFEKDGVIQTKVKHRTPMVSVPKMKHKPTRQQKKVAKGYSSPEPDIQDSSGSEAQSVKPSTRRKKGIELGDIQSSIESIKQTQEEIKRNIMALRNHLVSSTPATDYFLQQKDYFIIFLLILLQVIINFMFK [OSBPL8]”, the “solubility in G1/S (log2)” value with HeLa Kyoto [1] was -0.118. Further, the melting temperature in the data set on HeLa Kyoto [2] (cell cycle stage: G1/S) is 49.8 °C; in the data set on HeLa Kyoto [2] (cell cycle stage: mitosis) it was 50.9 °C. For the same sequence, in the data set on HeLa Kyoto [3], the “solubility change mitosis (log2)” value is -0.172. For the same sequence, the thermal stability score was 0.167 in the data set on HeLa Kyoto [4] (setting [5]) and 0.896 in the data set with HeLa Kyoto [4] (cell cycle stage: mitosis).
With “MEGLTLSDAEQKYYSDLFSYCDIESTKKVVVNGRVLELFRAAQLPNDVVLQIMELCGATRLGYFGRSQFYIALKLVAVAQSGFPLRVESINTVKDLPLPRFVASKNEQESRHAASYSSDSENQGSYSGVIPPPPGRGQVKKGSVSHDTVQPRTSADAQEPASPVVSPQQSPPTSPHTWRKHSRHPSGGNSERPLAGPGPFWSPFGEAQSGSSAGDAVWSGHSPPPPQENWVSFADTPPTSTLLTMHPASVQDQTTVRTVASATTAIEIRRQSSSYDDPWKITDEQRQYYVNQFKTIQPDLNGFIPGSAAKEFFTKSKLPILELSHIWELSDFDKDGALTLDEFCAAFHLVVARKNGYDLPEKLPESLMPKLIDLEDSADVGDQPGEVGYSGSPAEAPPSKSPSMPSLNQTWPELNQSSEQWETFSERSSSSQTLTQFDSNIAPADPDTAIVHPVPIRMTPSKIHMQEMELKRTGSDHTNPTSPLLVKPSDLLEENKINSSVKFASGNTVADGYSSSDSFTSDPEQIGSNVTRQRSHSGTSPDNTAPPPPPPRPQPSHSRSSSLDMNRTFTVTTGQQQAGVVAHPPAVPPRPQPSQAPGPAVHRPVDADGLITHTSTSPQQIPEQPNFADFSQFEVFAASNVNDEQDDEAEKHPEVLPAEKASDPASSLRVAKTDSKTEEKTAASAPANVSKGTTPLAPPPKPVRRRLKSEDELRPEVDEHTQKTGVLAAVLASQPSIPRSVGKDKKAIQASIRRNKETNTVLARLNSELQQQLKDVLEERISLEVQLEQLRPFSHL [REPS1]”, in the data set on HeLa Kyoto [1], the “solubility in G1/S (log2)” value was 0.0849. Further, the values for the melting temperature in the data set with HeLa Kyoto [2] (cell cycle stage: G1/S) and with HeLa Kyoto [2] (cell cycle stage: mitosis) were 48.8 °C and 49.8 °C, respectively. For the same sequence, the “solubility change mitosis (log2)” value with HeLa Kyoto [3] is -0.0971. For the same sequence, the results for the thermal stability score in the data set with HeLa Kyoto [4] (setting [5]) and in the data set with HeLa Kyoto [4] (cell cycle stage: mitosis) were 0.407 and 0.261, respectively.
For the sequence “MEGLVVAAGGDVSLHNFSARLWEQLVHFHVMRLTDSLFLWVGATPHLRNLAVAMCSRYDSIPVSTSLLGDTSDTTSTGLAQRLARKTNKQVFVSYNLQNTDSNFALLVENRIKEEMEAFPEKF [PSMG4]”, the “solubility in G1/S (log2)” value in the data set on HeLa Kyoto [1] is 0.14. For the same sequence, the melting temperature with HeLa Kyoto [2] (cell cycle stage: G1/S) is 57.5 °C; with HeLa Kyoto [2] (cell cycle stage: mitosis) it was 54.1 °C. Besides, the “solubility change mitosis (log2)” value in the data set on HeLa Kyoto [3] is -0.0112. For the same sequence, the thermal stability score with HeLa Kyoto [4] (setting [5]) is -0.165; with HeLa Kyoto [4] (cell cycle stage: mitosis) it was -2.02.
Take “MEGNRDEAEKCVEIAREALNAGNREKAQRFLQKAEKLYPLPSARALLEIIMKNGSTAGNSPHCRKPSGSGDQSKPNCTKDSTSGSGEGGKGYTKDQVDGVLSINKCKNYYEVLGVTKDAGDEDLKKAYRKLALKFHPDKNHAPGATDAFKKIGNAYAVLSNPEKRKQYDLTGNEEQACNHQNNGRFNFHRGCEADITPEDLFNIFFGGGFPSGSVHSFSNGRAGYSQQHQHRHSGHEREEERGDGGFSVFIQLMPIIVLILVSLLSQLMVSNPPYSLYPRSGTGQTIKMQTENLGVVYYVNKDFKNEYKGMLLQKVEKSVEEDYVTNIRNNCWKERQQKTDMQYAAKVYRDDRLRRKADALSMDNCKELERLTSLYKGG [DNAJB14]”: the “solubility in G1/S (log2)” value in the data set with HeLa Kyoto [1] turned out to be 0.511. Also, the melting temperature with HeLa Kyoto [2] (cell cycle stage: G1/S) amounted to 51.3 °C; in the data set with HeLa Kyoto [2] (cell cycle stage: mitosis), 51.9 °C. Besides, the “solubility change mitosis (log2)” value with HeLa Kyoto [3] is -0.15. In addition, the thermal stability score is -1.51 with HeLa Kyoto [4] (setting [5]) and 0.131 in the data set with HeLa Kyoto [4] (cell cycle stage: mitosis).
“MEGSGEQPGPQPQHPGDHRIRDGDFVVLKREDVFKAVQVQRRKKVTFEKQWFYLDNVIGHSYGTAFEVTSGGSLQPKKKREEPTAETKEAGTDNRNIVDDGKSQKLTQDDIKALKDKGIKGEEIVQQLIENSTTFRDKTEFAQDKYIKKKKKKYEAIITVVKPSTRILSIMYYAREPGKINHMRYDTLAQMLTLGNIRAGNKMIVMETCAGLVLGAMMERMGGFGSIIQLYPGGGPVRAATACFGFPKSFLSGLYEFPLNKVDSLLHGTFSAKMLSSEPKDSALVEESNGTLEEKQASEQENEDSMAEAPESNHPEDQETMETISQDPEHKGPKERGSKKDYIQEKQRRQEEQRKRHLEAAALLSERNADGLIVASRFHPTPLLLSLLDFVAPSRPFVVYCQYKEPLLECYTKLRERGGVINLRLSETWLRNYQVLPDRSHPKLLMSGGGGYLLSGFTVAMDNLKADTSLKSNASTLESHETEEPAAKKRKCPESDS [TRMT6]”: in the data set with HeLa Kyoto [1], the “solubility in G1/S (log2)” value was found to be 0.0845. For the same sequence, the melting temperature was determined as 54.9 °C in the data set on HeLa Kyoto [2] (cell cycle stage: G1/S) and 56.2 °C with HeLa Kyoto [2] (cell cycle stage: mitosis). In addition, the “solubility change mitosis (log2)” value in the data set on HeLa Kyoto [3] turned out to be 0.019. Further, the thermal stability score in the data set on HeLa Kyoto [4] (setting [5]) is 2.23; with HeLa Kyoto [4] (cell cycle stage: mitosis) it was 0.0663.
